We go through 105 substances from the supplement of paper PMC12042874.

± gives the uncertainty stated by the source.

The series can be described thus: amyloid nucleation score (Sup35N fusion, yeast selection) (log enrichment); library NNK2; higher = more nucleation; inactive = no reads after selection. Put shortly:
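For the nucleation score, DiMSum gave the log enrichment of output over input reads, centred on the mode score of non-aggregating sequences. Psi-negative yeast expressing Sup35N fused to peptides of 20 random codons were induced with 100 μM copper sulfate for 24 hours and grown 7 days at 30°C on medium lacking adenine and uracil. Input and output plasmid inserts were Illumina-sequenced, and sequences with under 100 input reads were excluded.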
Turning to ALIYCVFSFPFEAYDYMRFR, the amyloid nucleation score result was “inactive”.
Then ALLDCMWCTCVCKVSSGVVH, with “inactive”.
For ALLQICCSFIIYHTLLPAPA the value was 6.11 ± 0.064; for ALLWWRVKLSAHYRYGLNYW, 0.27 ± 0.4; for ALMLWKCKARTCISPQRRGV, 0.448 ± 0.4.
For ALSNGNVLHGLSMLSYMHCW the value was -0.388 ± 1.1; for ALSSNPVLSCKLC, 6.917 ± 0.027; for ALWVKGMFGGTMTRGILFLC, -0.369 ± 1.1.
Take ALYCERCYWPV: the amyloid nucleation score is 0.092 ± 0.53.
For ALYETTVPLLVWLGA the value was 0.463 ± 0.24; for AMAVLALHTVRSQLP, 5.988 ± 0.037.
For AMFSEVYASHQVVPYPLSLS the value was 0.746 ± 0.62.
AMPSRDLITR had an amyloid nucleation score of 2.52 ± 0.075.
Substance AMRGI yielded an amyloid nucleation score of 1.26 ± 0.23.
AMVLFDGNVLWIHDRSCRRI showed an amyloid nucleation score of 0.862 ± 0.53.
Then AMYEH, with 0.518 ± 0.46.
For AMYIIAFSPTK the value was 1.36 ± 0.67.
With ANGIFAEGGVREDSIH, the amyloid nucleation score entry is “inactive”.
On to ANGLVPYVTFLVLYALHTGT, for which the amyloid nucleation score was 1.41 ± 0.38.
For the substance ANHVSKDIFVNCEVKVPHVW, the amyloid nucleation score is 5.937 ± 0.051.
Consider ANPTADP, for which the amyloid nucleation score came to 0.578 ± 0.29.
For ANRWSMQGSERASSANWHRW the value was 4.63 ± 0.054; for ANSNIHLVPMTLSTDEVPLP, 0.413 ± 0.43; for APCNKESIKRARGWAVRWSW, 3.12 ± 0.077.
Then APFARSCDNWILGIFVFILG, with 6.125 ± 0.042.
In turn, APFCSIVTTDVP registered an amyloid nucleation score of -0.363 ± 1.1.
Then APKGMTLFPQMLTLMCNTVG, with 0.56 ± 0.74.
Then APPLTLELQYGWPLQRPLTK, with 0.275 ± 0.33.
For AQGILVLLSSD the value was 0.23 ± 0.47.
For AQISVSYGIWDSCTC, the amyloid nucleation score was 8.773 ± 0.032.
In the case of AQTWMAKTISKDAVGGSPLS, the amyloid nucleation score was 0.272 ± 0.56.
Then ARLLSG, with 0.626 ± 0.5; and ARNTDNPMSNGPYIWIGPY, with 1.21 ± 0.2.
Regarding ARRKVSHNV, the amyloid nucleation score came to 0.205 ± 0.77.
In turn, ARSNFLFRHNILFFVYFITS returned an amyloid nucleation score of -1.48 ± 1.1.
Substance ARWLSSAYSMIYEFSLLKSW showed an amyloid nucleation score of 0.706 ± 0.74.
For ASDRGI the value was 0.532 ± 0.18; for ASDRWMVYLIHVTSCYVLRV, -0.062 ± 0.41.
Then ASELLGYMCDIVASLGVVRY, with 0.747 ± 0.43; and ASFMPLFGGLGFLQKNEITM, with 3.7 ± 0.077.
The substance ASGQWGPD registered an amyloid nucleation score of -0.67 ± 0.76.
Then ASGVIDIGYIIVEVVMIFYI, with -0.697 ± 0.5; and ASITYNACLKPLQM, with 0.313 ± 0.64; and ASIVNYHFD, with “inactive”.
For ASLAEKGL the value was -0.497 ± 0.38; for ASLHWKMFLMAFLTASIVHA, -0.337 ± 0.55; for ASLSMSLFFALSVA, “inactive”.
With ASRKSLPEWLWIAWRHASGT, the amyloid nucleation score worked out at 1.29 ± 0.15.
For ASRMPSGVRSFWAKPR the value was 0.321 ± 0.32.
In turn, ASRNLMYVHNFSSAGLKVLP yielded an amyloid nucleation score of 0.178 ± 0.65.
In turn, ASSALHRVMVLAVTFFRHSS came in with an amyloid nucleation score of 0.839 ± 0.41.
On to ASVILTEPFMQGFSIYVGAG, for which the amyloid nucleation score was -0.746 ± 0.49.
Then ASVLTDPGVRSGRLRVCVGQ, with -0.121 ± 0.35.
For ASYLLKVVVYIHLSGSHGVD the value was 4.55 ± 0.068.
For ATDADGRLISY the value was 1.31 ± 0.25.
Consider ATFFM, for which the amyloid nucleation score was -0.011 ± 1.1.
Then ATGMIPVNLQATIWEVHEVG, with 2.68 ± 0.21.
As to ATLGTVRCYRKRAIFFEGHL, the amyloid nucleation score worked out at 1.17 ± 0.45.
ATLNVLDPHFYNMY: the amyloid nucleation score was -0.691 ± 0.41.
For ATTFKPAHLSRYMWLATYPV the value was 0.765 ± 0.41; for ATYIGRSNVSRWVVRAMSSS, 5.25 ± 0.073; for AVAASLMFYVCFITADIADM, 0.859 ± 0.74.
Then AVHDGFDRNMAIKGTGGRWW, with 3.79 ± 0.098; and AVIMALNIGWRRRDSGWDGV, with 5.9 ± 0.083; and AVLLNA, with 0.181 ± 0.34.
For AVMTRFEDVYDCAVSTCKMG the value was -0.363 ± 1; for AVPAVRVNGLHIRNCGYTGP, 1.22 ± 0.2.
As to AVQEEARLALSVEPWSSDSG, the amyloid nucleation score is 1.22 ± 0.28.
For AVRELVYDLLASKNFWTSNA the value was 0.932 ± 0.2; for AVRVGGTGFRVRS, -0.121 ± 0.48; for AVVGDMGIC, -0.511 ± 0.63.
With AVVVREAFLLFLKAIERAGI, the amyloid nucleation score was -1.31 ± 0.55.
Then AWANRMWWAR, with 4.23 ± 0.074; and AWESNCIVRFKY, with 4.36 ± 0.089; and AWGRARNVRFYFVLRGESGL, with 2.79 ± 0.12.
Then AWKAVY, with -0.585 ± 0.63.
The substance AWKMVMRLDARPLARFWGDG showed an amyloid nucleation score of 5.34 ± 0.092.
Substance AWRMCTV had an amyloid nucleation score of 0.302 ± 0.33.
For AWRYWFHTLSLTLKNWTSVF the value was 5.14 ± 0.087; for AYDRIY, 0.367 ± 0.74.
Substance AYILAVVCPVVRKIGSQYDE registered an amyloid nucleation score of 1.87 ± 0.15.
For AYKTSHVWSLYRVHGV the value was 0.41 ± 0.25; for AYLFHLFIIS, -0.017 ± 0.48.
Substance AYPVES came in with an amyloid nucleation score of 1.19 ± 0.23.
In turn, AYSGIFTRNAEVYSDIYLQ returned an amyloid nucleation score of -0.499 ± 0.76.
AYYYWLGG gave an amyloid nucleation score of -0.381 ± 1.1.
Take CAFYDYGKALPRGNFRLSKM: the amyloid nucleation score is -0.208 ± 1.
Then CAIFVRERW, with 5.03 ± 0.089.
Then CAKLGTSSRFIFE, with 0.073 ± 1.1; and CARVMLFIMSEMIEFTFYGL, with 2.89 ± 0.14.
For the substance CASVSQGPKQLLPPNVTGLY, the amyloid nucleation score is -0.176 ± 0.45.
The substance CCFGVQVEGT showed an amyloid nucleation score of -0.461 ± 0.79.
Then CCISMDVLWRLSEQP, with 6.385 ± 0.05.
For CCWVSLMRGNRLSTDSSNTL, the amyloid nucleation score is -0.087 ± 0.37.
Substance CDFAIPYYNGPYSQKFLMTS came in with an amyloid nucleation score of -0.321 ± 0.8.
Then CDHQRLMTYLVPAGYMPDTM, with -0.201 ± 0.62.
Regarding CDILYLNMFAIFDFFDPVKL, the amyloid nucleation score result was “inactive”.
For CDPVSNFCIMLMCFIREYGR the value was 1.99 ± 0.087; for CDTYNFCIL, 6.124 ± 0.035.
CDVFMQAKIASVMGYDVQRA returned an amyloid nucleation score of -0.225 ± 0.41.
For CEFALYAFWCCIYLRFNKYS the value was -0.606 ± 0.44; for CEGCHATKYRVRSWS, 1.01 ± 0.31; for CEGNGVFYGLPYSGSDIPNR, -0.719 ± 0.61.
For CESHVSRWYSVS the value was 0.505 ± 0.27; for CEVFYSVGRSK, -0.633 ± 1.1.
